# Laboratory results reported in the nanobody polyreactivity screen of Harvey et al. (2022).
# Experiment: yeast display, Sf9 membrane polyspecificity reagent, FACS + sequencing; frameworks hold sequencing errors
# Method in brief: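 Nanobodies came from a synthetic yeast display library in Saccharomyces cerevisiae BJ5465, induced with galactose for 36–48 hours and stained for 1 hour at 4 °C with 10% biotinylated, detergent-solubilized Sf9 membrane reagent. Cells were enriched on streptavidin microbeads and then FACS-sorted, with low and high (top ~1%) gates set on anti-HA fluorescence for expression and streptavidin fluorescence for reagent binding. Each polyreactivity label reflects the gate a clone came from. Genes were amplified by colony PCR, sequenced by MiSeq 2 × 250 and filtered by CDR length.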
row,Sequence,polyreactivity (PSR sort gate)
1,QVQLVESGGGLVQAGGSLRLSCAASGSIFSWYAMGWYRQAPGKERELVAAISSRGGSTYYADSVKGRFTISRDNAKNTVYLQMNSLKPEDTAVYYCNTTYGYSTYWASGKYDYWGQGTQVTVSS,low polyreactivity
2,QVQLVESGGGLVQAGGSLRLSCAASGSIFSYYALGWYRQAPGKERELVAAISYSGGTTYYADSVKGRFTISRDNAKNTVYLQMNSLKPEDTAVYYCAAQWWWNRPVRYEYWGQGTQVTVSS,low polyreactivity
3,QVQLVESGGGLVQAGGSLRLSCAASGSIFSYYAMGWSRQAPGKERELVAAISRSGTSTYYADSVKGRFTISRDNAKNTVSLQMNSLKPEVNAVDYCNARWGFSRHRLMGYWGQGTQVSVSS,high polyreactivity
4,QVQLVESGGGLVQAGGSLRLSCAASGSIFSYYAMGWYRQAPGKERELVAAISKRGASTYYADSVKGRFTISRDNAKNTVYLQMNSLKPEDTAVYYCAARPYGGGRRSIYYYWGQGTQVTVSS,high polyreactivity
5,QVQLVESGGGLVQAGGSLRLSCAASGSIFSYYAMGWYRQAPGKERELVAAISKRGASTYYADSVKGRFTISRDNAKNTVYLQMNSLKPEDTAVYYCNRVLYDHSFPYNRGYDYWGQGTQVTVSS,high polyreactivity
6,QVQLVESGGGLVQAGGSLRLSCAASGSIFSYYAMGWYRQAPGKERELVAAISYSGSDTYYADSVKGRFTISRDNAKNTVSFQMNSLKPEDTAVYYCAAEDPSYSYHYWGQGTQVTVSS,low polyreactivity
7,QVQLVESGGGLVQAGGSLRLSCAASGSIFSYYAMGWYRQAPGKERELVAAITRSGSKNYADSVKGRFTISRDNAKNTVYLQMNSLKPEDTAVYYCAAETDESDWYYYWGQGTQVTVSS,high polyreactivity
8,QVQLVESGGGLVQAGGSLRLSCAASGSIFSYYAMGWYRQAPGKERELVAAITVRGGSTYYADSVKGRFTISRDNAKNTVYLQMNSLKPEDTAVYYCAADWLDESFSYGPYYYWGQGTQVTVSS,low polyreactivity
9,QVQLVESGGGLVQAGGSLRLSCAASGSIFSYYAMGWYRQAPGKERELVAGISISTGSTYYADSVKGRFTISRDNAKNTVYLQMNSLIPEDTAVYYCNASALDPLYAKDDYWGQGTQVTVSS,low polyreactivity
10,QVQLVESGGGLVQAGGSLRLSCAASGSIFSYYAMGWYRQAPGKERELVARITRGGDGTYYADSVKGRFTISRDNAKNTDYLQMNSLKPEDTAVYYCARRQVLYTRDFEYDYWGQGTQVTVSS,low polyreactivity
11,QVQLVESGGGLVQAGGSLRLSCAASGSIFSYYAMGWYRQAPGKERELVASISWNGTSTYYADSVKGRFTISRDNAKNTVDLQMNSLKPEDTADYYCNVRFNYRGTYDYWGQGTQVTVSS,low polyreactivity
12,QVQLVESGGGLVQAGGSLRLSCAASGSIFSYYAMGWYRQATAKERDLVAAISTSCGNTYYADSVKGRFTISRDNPKNRVYVQMNSLKPEDTAVYYCAAENVWAWFYGYDYWGQGTQVTVSS,high polyreactivity
13,QVQLVESGGGLVQAGGSLRLSCAASGSIFSYYAMGWYRQEPGKERELVAAITWSGTRTYYADSVKGRFTISRDNAKNTVYLQMISLKPEDTAVYYCATEYDYWDDSYDSWGLGTQVTVSS,low polyreactivity
14,QVQLVESGGGLVQAGGSLRLSCAASGSIFSYYGMGWYRQAPGKERELVAAITDGDGTNYADSVKGRFTISRDNAKNTVYLQMNSLKPEDTAVYYCARDDRDIRGESGREGFLYDYWGQGTQVTVSS,low polyreactivity
15,QVQLVESGGGLVQAGGSLRLSCAASGSIFSYYTMGWYRQAPGKERELVAAITRGGRTSYADSVKGRFTISRDNAKNTVYLQMNSLKPEDTAVYYCAADYWYFTHQLSTYGDNYWGQGTQVTVSS,low polyreactivity
16,QVQLVESGGGLVQAGGSLRLSCAASGSIFTDNAMGWYRQAPGKERALVAAISWIGDSTDYADSVKGRFTISRDNAKNTVYLQMNSLKPDDTAVYFCAADAKVVSPLYRANDIGMYYWGQGTQVTVSS,low polyreactivity
17,QVQLVESGGGLVQAGGSLRLSCAASGSIFTDNAMGWYRQAPGKERELVAAITGRGGNTYYADSVKGRFTISRDNAKNTVYLQMNSLKPEDTAVYYCAARIFRTRKPLGYWGQGTQVTVSS,high polyreactivity
18,QVQLVESGGGLVQAGGSLRLSCAASGSIFTENDMGWYRQAPGKEREMVAAIDWDGGRTYYADSVKGRFTISRDNAKNTVYLQMNSLKPEDTAVYYCNKGRYWSNYFYWPSTHVYWGQGTQVTVSS,high polyreactivity
19,QVQLVESGGGLVQAGGSLRLSCAASGSIFTFNAMGWYRQAPGKERELVASINWSGGSTYYADSVKGRFTISRDNAKNTVYLQMNSLKPEDTAVYYCNKRRNGYGSQFYYPYDYWGQGTQVTVSS,low polyreactivity
20,QVQLVESGGGLVQAGGSLRLSCAASGSIFTFNAMGWYRQAPGKERELVATISRRTGSTYYADSVKGRFTISRDNAKNTVYLQMNSLKPEDTAVYYCAARRRVYWYNHYNYWGQGTQVTVSS,high polyreactivity
21,QVQLVESGGGLVQAGGSLRLSCAASGSIFTFYAMGWYIQAPGKERELVAAISSGGDTYYADSVKGRFTISRDNAKNTVYLQKNILKPEDTAVYYCAADWRGSYLYGYYYWGQGTQVTVSS,low polyreactivity
22,QVQLVESGGGLVQAGGSLRLSCAASGSIFTFYAMGWYRQAPGKERELVATITWSGGSTFYADSVKGRFTISRDNAKNTVYLQMNSLKPEDTAVYYCAAYRVDYSDAYYYWGQGTQVTVSS,low polyreactivity

row,Sequence,polyreactivity (PSR sort gate)
1,QVQLVESGGGLVQAGGSLRLSCAASGSIFTGYAMGWSRQAPGKEREMLAAISWSGGSTSYADSVKGRFTISRDNAKNTVYLQMNSLKPEDTAVYYCSTDVRQGSGWRYYYWGQGTQVTVSS,high polyreactivity
2,QVQLVESGGGLVQAGGSLRLSCAASGSIFTGYAMGWYRQAPGKERELVAAITYGSGRTYYADSVKGRFTISRDNAKNTLYLQMNSLKPEDTAVYYCAAKWSPYYYYIGYDYWGQGTQVTVSS,low polyreactivity
3,QVQLVESGGGLVQAGGSLRLSCAASGSIFTGYAMGWYRQAPGKERELVARITKRGGSTYYADSVKGRFTISRDNAKNTVYLQMNSLKPEDTAVFYCNADRKFPYGSYETHDYWGQGTQVTVSS,high polyreactivity
4,QVQLVESGGGLVQAGGSLRLSCAASGSIFTHNAMGWYRQAPGKERELVAAISTSGGRTYYADSVKGRFTISRDNAKNTVYLQMNSLKPEDTAVYYCAKLSTARYDYWGQGTQVTVSS,high polyreactivity
5,QVQLVESGGGLVQAGGSLRLSCAASGSIFTHNDMGWYRQAPGQERELVAAISSGGSTNYADSVTGRFTISRDNAKNTVYLQMNSLIPVETAVYYCAKSIDGWYWRRRRYDYWGQGTQVTVSS,low polyreactivity
6,QVQLVESGGGLVQAGGSLRLSCAASGSIFTKYAMGWYIQAPGKEREFVAAITLSGGSTYYADSVKGRFTISRDNAKNTVYLQMNSLKPEDTAVYYCNAAYTYVTAWYYYWGQGTQVTVSS,high polyreactivity
7,QVQLVESGGGLVQAGGSLRLSCAASGSIFTKYAMGWYRQAPGKERELVAAINARGGSTYYADSVKGRFTISRDNAKNTVYLQMNSLKPEDTAVYYCAARYGVGRADYYWGQGTQVTVSS,high polyreactivity
8,QVQLVESGGGLVQAGGSLRLSCAASGSIFTLYAMGWYRQAPGKERELVAAITRSGGSTYYADSVKGRFTISRDNAKNTVYLQMNSLKPEDTAVYYCAADKAPYSTEGDYWGQGTQVTVSS,high polyreactivity
9,QVQLVESGGGLVQAGGSLRLSCAASGSIFTLYSMGWYRQAPGKERELVATINWSGGSTSYADSVKGRFTISRDNAKYTVYLQMNSLKADDTAVYYCAADYYFWHGTGYDYWGQGTQVNVSS,low polyreactivity
10,QVQLVESGGGLVQAGGSLRLSCAASGSIFTNYAMGWYRQAPGKERELVAAISVGGGRTYYADSVKGRFTISRDNAKNTVYLQMNSLKPEDTAVYYCAASRRTRSMNYWGQGTQVTVSS,high polyreactivity
11,QVQLVESGGGLVQAGGSLRLSCAASGSIFTNYPMGCYRQAPGKERELVAAISQSGDTTYYADSVKGRFTISRDNAKNTVYLQMNSLKPEDSSVYYCAAQYYRWFYYWGQGTQVTVSS,high polyreactivity
12,QVQLVESGGGLVQAGGSLRLSCAASGSIFTPYAMGWSRQAPGKLRELVADISRSGSTNYADSVKGRFTISRDNAKNTVYLQMNSLKPEDTAVYYCNADFWWHWGTSYVYWGQGTQVTVSS,high polyreactivity
13,QVQLVESGGGLVQAGGSLRLSCAASGSIFTPYAMGWYRQAPGKEREFVADIDDSGGGTYADSVKGRFTISRDNAKNTVYLQMNSLKPEDTAVYYCNADTGIWDYRFVDRDYWGQGTQVTVSW,low polyreactivity
14,QVQLVESGGGLVQAGGSLRLSCAASGSIFTPYAMGWYRQAPGKERELVAGIRSSGGRTYYADSVKGRFTISRDNAKNTVYLQMNSLKPEDTAVYYCAARVGGIYRNDYWGQGTQVTVSS,low polyreactivity
15,QVQLVESGGGLVQAGGSLRLSCAASGSIFTQNAMGWYRQAPGKERELVAAITSTGGSTYYADSVKGRFTISRDNAKNTVYLQMNSLKPEDTAVYYCNADGFRRAALHDYWGQGTQVTVSS,high polyreactivity
16,QVQLVESGGGLVQAGGSLRLSCAASGSIFTQYAMGWYRQAPGKEREFVARITGSGGRTYYADSVKGRFTISRDNAKNTVYLQMNSLKPEDTAVYYCAARDVRPYYVKPPVRYYYWGQGTQVTVSS,high polyreactivity
17,QVQLVESGGGLVQAGGSLRLSCAASGSIFTQYAMGWYRQAPGKERELVARITGSGGRTYYADSVKGRFTISRDNAKNTVYLQMNSLKPEDTAVYYCAARDVRPYYVKPPVRYYYWGQGTQVTVSS,high polyreactivity
18,QVQLVESGGGLVQAGGSLRLSCAASGSIFTQYTMGWYRQAPGKERELVAAISRSGGRTYYADSVKGRFTISRDNSKNTVYLQMKSLKPEDTAVYYCAAEYTDKYEYWGQGTQVTVSS,high polyreactivity
19,QVQLVESGGGLVQAGGSLRLSCAASGSIFTRNAMGWYRQAPGKERELVASISYSGGNTYYADSVKGRFTISRDNAKNTVYLQMNSLKPEDTAVYYCNARRWFYLLYGYDYWGQGTQVTVSS,high polyreactivity
20,QVQLVESGGGLVQAGGSLRLSCAASGSIFTRYVMGWYRQARGKERELVASISGRGSSTYYADSVKGRFTISRDNAKNTVYLQMNSLKPEDTAVYYCAAEIVVFYSEGQRNTFYYWGQGTQVTVSS,high polyreactivity
21,QVQLVESGGGLVQAGGSLRLSCAASGSIFTSNAMGWYRQAPGKERELVAVISRRGGSTYYADSVKGRFTISRDNAKNTVYLQMNSLKPEDTAVYYCARRPYSYTRYEYWGQGTQVTVSS,low polyreactivity
